Measured values from publication PMC6519459 (Science (New York, N.Y.), 2018).

Molecular target: Rpn11 (deubiquitinase of the lid, 3XFLAG-tagged, in the 26S holoenzyme) (S. cerevisiae, UniProt P43588 1-306)
Assay: cryo-EM structure

B1: ubiquitin (S. cerevisiae), the proximal, substrate-attached moiety of the polyubiquitin chain (natural protein)
chain: not shown
modifications: C terminus joined to the substrate lysine by an isopeptide bond; part of a K63-linked chain
B1: binds.
